Target: T1, Integrin beta3 (CD61, GP3A), overexpressed on A549-ITGB3-OE cells (Homo sapiens) (UniProt P05106)
T1 sequence: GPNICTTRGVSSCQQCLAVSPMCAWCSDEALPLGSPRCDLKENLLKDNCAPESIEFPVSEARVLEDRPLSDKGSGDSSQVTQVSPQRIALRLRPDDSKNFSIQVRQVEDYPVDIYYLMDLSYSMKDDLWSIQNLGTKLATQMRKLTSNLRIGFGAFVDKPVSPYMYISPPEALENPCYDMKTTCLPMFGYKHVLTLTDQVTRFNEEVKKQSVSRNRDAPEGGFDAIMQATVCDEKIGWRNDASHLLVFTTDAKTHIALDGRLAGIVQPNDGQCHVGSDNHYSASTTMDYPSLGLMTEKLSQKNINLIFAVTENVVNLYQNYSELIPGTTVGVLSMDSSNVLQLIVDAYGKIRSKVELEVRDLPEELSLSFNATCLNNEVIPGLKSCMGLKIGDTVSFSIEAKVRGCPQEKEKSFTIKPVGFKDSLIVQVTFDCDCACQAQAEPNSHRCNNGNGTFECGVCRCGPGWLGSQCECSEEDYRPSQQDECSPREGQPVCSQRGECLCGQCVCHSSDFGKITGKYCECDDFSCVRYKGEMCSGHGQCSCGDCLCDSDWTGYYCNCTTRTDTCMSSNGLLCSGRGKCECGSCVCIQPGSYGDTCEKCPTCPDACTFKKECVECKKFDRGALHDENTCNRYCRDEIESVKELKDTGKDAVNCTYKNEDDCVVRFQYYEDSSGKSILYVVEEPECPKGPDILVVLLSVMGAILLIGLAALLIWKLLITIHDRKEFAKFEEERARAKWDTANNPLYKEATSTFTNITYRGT
Assay: flow cytometry
Conditions: live A549-ITGB3-OE cells, FAM label; PBS with 5 mM MgCl2, 4.5 g/L glucose, 100 ug/mL tRNA; 4 C, 30 min; pH not stated; pull-down on ice 30 min

Row | Sequence | Kd [µM]
1 | TCCACGATGTAGGATCCACATGAGCGCTCCTGTTACCCTG [S10yh2] | 0.0612
2 | TTCAGCACTCCACGCATAGCTCCACGATGTAGGATCCACATGAGCGCTCCTGTTACCCTGCCTATGCGTGCTACCGTGAA [S10] | 0.0714

— publication PMC10448441
